Laboratory results from patent US20090089899A1, “Method for Enhancing Drought Stress Tolerance in Plants by Active AREB1” (priority 2005, published 2009).

B1: full-length AREB1: full-length Arabidopsis thaliana AREB1 protein (SEQ ID NO: 2), expressed from full-length cDNA under 35S promoter (protein, listed as Arabidopsis thaliana)
chain: MDGSMNLGNEPPGDGGGGGGLTRQGSIYSLTFDEFQSSVGKDFGSMNMDELLKNIWSAEETQAMASGVVPVLGGGQEGLQLQRQGSLTLPRTLSQKTVDQVWKDLSKVGSSGVGGSNLSQVAQAQSQSQSQRQQTLGEVTLEEFLVRAGVVREEAQVAARAQIAENNKGGYFGNDANTGFSVEFQQPSPRVVAAGVMGNLGAETANSLQVQGSSLPLNVNGARTTYQQSQQQQPIMPKQPGFGYGTQMGQLNSPGIRGGGLVGLGDQSLTNNVGFVQGASAAIPGALGVGAVSPVTPLSSEGIGKSNGDSSSLSPSPYMFNGGVRGRKSGTVEKVVERRQRRMIKNRESAARSRARKQAYTVELEAEVAKLKEENDELQRKQARIMEMQKNQETEMRNLLQGGPKKKLRRTESGPW

Key:
RD29B gene = assay: RNA gel blot (Northern) analysis of downstream gene RD29B in transformed plants; type: in vivo, Arabidopsis thaliana
Description: Extraction of total RNA from plant bodies and RNA gel blot analysis using the total RNA were performed according to the method of Satoh et al (2004, Plant Cell Physiol. 45, 309-317) using a Shakemaster crusher (Bio Medical Science, Tokyo, Japan). Furthermore, probes for RNA gel blot analysis were prepared according to the method of Maruyama et al (2004, Plant J. 38, 982-993).
To prepare a pBE2113Not-AREB1 plasmid, the entire coding region of AREB1 was amplified by PCR using a primer with a Not I linker and then the resultant was introduced into pBE2113Not (Liu et al., 1998, Plant Cell 10, 1391-1406) in the sense orientation. pBE2113Not-AREB1ΔQT was prepared by amplifying the coding region of AREB1ΔQT by PCR using primers with Xba I and BamH I linkers and then introducing the resultant into the Xba I/BamH I site of pBE2113Not in the sense orientation.
To produce transformed plants with 35S-AREB1 and 35S-AREB1ΔQT, transformation vectors, pBE2113Not-AREB1 and pBE2113Not-AREB1ΔQT, were introduced into Arabidopsis thaliana (Columbia) by a suction-infiltration method (Osakabe et al., 2005, Plant Cell 17, 1105-1119) using the Agrobacterium tumefaciens C58 strain.
Here, it was examined whether or not overexpression of ABRE1ΔQT in Arabidopsis thaliana would activate the transcription of a downstream gene such as RD29B in the absence of external ABA. […]

RD29B-GUS reporter gene = assay: Transient expression (transactivation) analysis with RD29B-GUS reporter in protoplasts of Arabidopsis thaliana T87 cells; type: cell-based; settings: in the presence of 50 μM abscisic acid (ABA)
Description: Analysis of transient expression was performed using protoplasts derived from Arabidopsis thaliana T87 cells according to a slightly modified version of the method of Fujita et al (2004, Plant J. 39, 863-876) and the method of Satoh et al (2004, Plant Cell Physiol. 45, 309-317). Protoplast isolation and gene introduction were all performed at room temperature (25° C. to 28° C.). Protoplasts in which the gene had been introduced were allowed to stand for 16 to 20 hours at 22° C. in the dark. An enzyme solution [0.4 M mannitol, 1.5% (w/v) cellulase “Onozuka” R-10 (Yakult, Tokyo, Japan), 0.3% (w/v) macerozyme R-10 (Yakult), 0.1% (w/v) bovine serum albumin, 10 mM CaCl2, 20 mM KCl, and 20 mM MES, pH 5.7] was prepared according to the method of Sheen (2002) (http://genetics.mgh.harvard.edu/sheenweb/).
A DNA fragment containing a portion or the whole of AREB1 cDNA was amplified by PCR and then the product was cloned into the Not I site of an expression vector pBI35SΩ (Abe et al., 1997, Plant Cell 9, 1859-1868). Thus, a plasmid having an AREB1 bZIP DNA binding domain was prepared. The plasmid was then used for an experiment for the analysis of transient expression. To remove a 640-base-pair fragment that was partially cleaved with EcoT14I from the pBI35SΩ-AREB1 plasmid, self-binding ligase reaction was performed after partial cleavage with EcoT14I. […]

Row | Molecule | expression of the downstream gene RD29B (Northern analysis) (RD29B gene; wild-type (WT) and vector control plants, 50 μM ABA, 7 hours) | GUS activity (RD29B-GUS reporter) (RD29B-GUS reporter gene) | expression of the downstream RD29B gene (Northern analysis) (RD29B gene; 2-week-old seedlings of transformed plants, in the absence of ABA)
1 | CC1=CC(=O)CC(C)(C)[C@@]1(O)/C=C/C(C)=C\C(=O)O [ABA, abscisic acid, reference compound] | could be confirmed only in the presence of 50 μM ABA |  | 
2 | B1 |  | significant enhancement in GUS activity | not observed
